The target in this data set is thrombin (UniProt P00734;P00734 P00734:328-363,P00734:364-622). Put plainly: ELONA.
Turning to GGTTGGTGTGGTTGGTTTTTTTTTTTTTTT (ssDNA) [FITC-thrombin DNA aptamer with T15 linker (30 mer)], the binding result is “binds”. For GGTTGGTGTGGTTGGTTTTTTTTTTTTTTT (ssDNA, 3' single Z-QG-ddUTP crosslinked to NK14-BAP) [(BAP)-aptamer, single label] the value was “binds”; for GGTTGGTGTGGTTGGTTTTTTTTTTTTTTT (ssDNA, 3' single Z-QG-(PEG)3-ddUTP crosslinked to NK14-BAP) [(BAP)-(PEG)3-aptamer, single label], “binds”.

These data come from patent publication US20150284762, “METHOD FOR PRODUCING PROTEIN-NUCLEIC ACID CONJUGATE, AND METHOD FOR DETECTING TARGET SUBSTANCE” (KYUSHU UNIVERSITY, NATIONAL UNIVERSITY CORPORATION, published 2015).
